Data: paper doi:10.1101/2023.08.14.553221 (bioRxiv, 2023)

B1: short human tissue transglutaminase, aa 1-465 (short hrTG2, barrel 1 and 2 deletion mutant) (domain or fragment)
chain: MAEELVLERCDLELETNGRDHHTADLCREKLVVRRGQPFWLTLHFEGRNYEASVDSLTFSVVTGPAPSQEAGTKARFPLRDAVEEGDWTATVVDQQDCTLSLQLTTPANAPIGLYRLSLEASTGYQGSSFVLGHFILLFNAWCPADAVYLDSEEERQEYVLTQQGFIYQGSAKFIKNIPWNFGQFEDGILDICLILLDVNPKFLKNAGRDCSRRSSPVYVGRVVSGMVNCNDDQGVLLGRWDNNYGDGVSPMSWIGSVDILRRWKNHGCQRVKYGQCWVFAAVACTVLRCLGIPTRVVTNYNSAHDQNSNLLIEYFRNEFGEIQGDKSEMIWNFHCWVESWMTRPDLQPGYEGWQALDPTPQEKSEGTYCCGPVPVRAIKEGDLSTKYDAPFVFAEVNADVVDWIQQDDGSVHKSINRSLIVGLKISTKSVGRDEREDITHTYKYPEGSSEEREAFTRANHLNKL
modifications: Alexa Fluor 647 on primary amines
B2: short human TG2 (aa 1-465) pre-incubated with the irreversible inhibitor Z006 (domain or fragment)
chain: B1 chain
B3: R1R2 peptide (collagen-mimicking peptide derived from the SFS FN-binding protein of Streptococcus equi) (peptide)
peptide: GLNGENQKEPEQGERGEAGPPLSGLSGNNQGRPSLPGLNGENQKEPEQGERGEAGPP
B4: human tissue transglutaminase (hrTG2, recombinantly produced in E.coli) (enzyme)
chain: MAEELVLERCDLELETNGRDHHTADLCREKLVVRRGQPFWLTLHFEGRNYEASVDSLTFSVVTGPAPSQEAGTKARFPLRDAVEEGDWTATVVDQQDCTLSLQLTTPANAPIGLYRLSLEASTGYQGSSFVLGHFILLFNAWCPADAVYLDSEEERQEYVLTQQGFIYQGSAKFIKNIPWNFGQFEDGILDICLILLDVNPKFLKNAGRDCSRRSSPVYVGRVVSGMVNCNDDQGVLLGRWDNNYGDGVSPMSWIGSVDILRRWKNHGCQRVKYGQCWVFAAVACTVLRCLGIPTRVVTNYNSAHDQNSNLLIEYFRNEFGEIQGDKSEMIWNFHCWVESWMTRPDLQPGYEGWQALDPTPQEKSEGTYCCGPVPVRAIKEGDLSTKYDAPFVFAEVNADVVDWIQQDDGSVHKSINRSLIVGLKISTKSVGRDEREDITHTYKYPEGSSEEREAFTRANHLNKLAEKEETGMAMRIRVGQSMNMGSDFDVFAHITNNTAEEYVCRLLLCARTVSYNGILGPECGTKYLLNLNLEPFSEKSVPLCILYEKYRDCLTESNLIKVRALLVEPVINSYLLAERDLYLENPEIKIRILGEPKQKRKLVAEVSLQNPLPVALEGCTFTVEGAGLTEEQKTVEIPDPVEAGEEVKVRMDLLPLHMGLHKLVVNFESDKLKAVKGFRNVIIGPA
modifications: Alexa Fluor 647 on primary amines (fiber stretch assay)

Experiments:
[1] = biological target: T1, Fibronectin (FN), full-length, isolated from human plasma (human, UniProt P02751-1); assay: microplate protein-binding assay
[2] = biological target: T1, Fibronectin (FN), full-length, isolated …; assay: FN-fiber stretch assay
[3] = biological target: T1, Fibronectin (FN), full-length, isolated …; assay: cross-linking

Binder	binding result [1]	also measured
B1	binds	–
B2	binds	–
B3	–	binding result [2]: binds
B4	–	binding result [3]: binds
